According to US20150290345A1:

Biological target: Recombinant Human ErbB2/Fc Chimera (R&D Systems, Inc.) (human) (UniProt P04626)
Assay: SPR, ProteOn XPR36; ErbB2/Fc amine-coupled on GLM chip (about 3000 RU), 1:1 Langmuir fit

Row | Substance | Kd [nM]
1 | L1-ICG-HSA (Affibody-immobilized ICG-HSA, SM(PEG)2 linker at 10 times the molar amount of ICG-HSA) (from UniProt P02768 25-609) | 2.3
2 | L2-ICG-HSA (Affibody-immobilized ICG-HSA, SM(PEG)2 linker at 100 times the molar amount of ICG-HSA) (from UniProt P02768 25-609) | 0.24
